From paper PMC8153946, “Substrate Selectivity of Coumarin Derivatives by Human CYP1 Enzymes: In Vitro Enzyme Kinetics and In Silico Modeling” (ACS Omega, 2021)

Experiments:
Experiment in all cases: Michaelis–Menten kinetics of oxidation to fluorescent 7-hydroxy metabolite by recombinant CYP1B1
Assay type in all cases: biochemical, human
Settings in all cases: other: recombinant CYP1B1, 100 mM Tris-HCl pH 7.4, 37 °C, 95% confidence interval in brackets
[1] = substrate: COc1cccc(-c2cc3cc(OC)ccc3oc2=O)c1
Description: (§1) Baculovirus-insect cell-expressed human CYP1A1, CYP1A2, CYP1B1, CYP2A6, CYP2B6, CYP2C8, CYP2C9, CYP2C19, CYP2D6, CYP2E1, CYP3A4, CYP3A5, and CYP3A7 were purchased from BD Biosciences Discovery Labware (Woburn, MA, USA) and used according to the manufacturer’s instructions.
(§2) The kinetic assays were carried out in 100 μL volume containing 100 mM Tris-HCl buffer pH 7.4, 0–40 μM coumarin derivative or 0–10 μM 7-ethoxyresorufin, 1–25 nM recombinant CYP or 0–0.1 g/L microsomal protein, and 20% NADPH regenerating system. Incubations took place at 37 °C in 96-multiwell plates; the fluorescence was measured with a Victor[2] plate reader (PerkinElmer Life Sciences, Turku, Finland). The detailed conditions are described in the figures and tables. The reaction was started by adding NADPH, and fluorescence was measured at 2 min intervals for 40 min using excitation at 405 nm and emission at 460 nm for oxidation of coumarin derivatives[18] and excitation at 570 nm and emission at 615 nm for ethoxyresorufin or pentoxyresorufin 7-O-dealkylations. Incubations without the substrate, enzyme, or NADPH were used as blank reactions. Resorufin was used as a standard, and 3-(4-fluorophenyl)-7-hydroxycoumarin was used as the surrogate standards to calculate the amount of product formed. The linear phase of the reactions was used for calculations.
(§3) Enzyme kinetic parameters were analyzed using the nonlinear Michaelis–Menten equation v = Vmax × S/(Km + S), in which v is the rate for 7-hydroxylation of a coumarin derivative, S is its concentration, and Vmax value is the limiting rate of the reaction of 7-hydroxylation, which reached a half-maximal rate at a concentration of Km for the substrate.

[2] = substrate: CC(=O)Oc1cccc(-c2cc3cc(Cl)ccc3oc2=O)c1
Description: as §1, §2, §3

[3] = substrate: CCOc1ccc2nc3ccc(=O)cc-3oc2c1
Description: as §1, §2, §3

[4] = substrate: O=c1oc2ccc(O)cc2cc1-c1cccc(O)c1
Description: as §1, §2, §3

[5] = substrate: CCCCCOc1ccc2nc3ccc(=O)cc-3oc2c1
Description: as §1, §2, §3

[6] = substrate: CCOc1ccc2ccc(=O)oc2c1
Description: as §1, §2, §3

[7] = substrate: CC(=O)Oc1ccc(-c2cc3cc(Cl)ccc3oc2=O)cc1
Description: as §1, §2, §3

B1: human CYP1B1 (Homo sapiens) (protein)
chain: MGTSLSPNDPWPLNPLSIQQTTLLLLLSVLATVHVGQRLLRQRRRQLRSAPPGPFAWPLIGNAAAVGQAAHLSFARLARRYGDVFQIRLGSCPIVVLNGERAIHQALVQQGSAFADRPAFASFRVVSGGRSMAFGHYSEHWKVQRRAAHSMMRNFFTRQPRSRQVLEGHVLSEARELVALLVRGSADGAFLDPRPLTVVAVANVMSAVCFGCRYSHDDPEFRELLSHNEEFGRTVGAGSLVDVMPWLQYFPNPVRTVFREFEQLNRNFSNFILDKFLRHCESLRPGAAPRDMMDAFILSAEKKAAGDSHGGGARLDLENVPATITDIFGASQDTLSTALQWLLLLFTRYPDVQTRVQAELDQVVGRDRLPCMGDQPNLPYVLAFLYEAMRFSSFVPVTIPHATTANTSVLGYHIPKDTVVFVNQWSVNHDPLKWPNPENFDPARFLDKDGLINKDLTSRVMIFSVGKRRCIGEELSKMQLFLFISILAHQCDFRANPNEPAKMNFSYGLTIKPKSFKVNVTLRESMELLDSAVQNLQAKETCQ
notes: purchased BD Biosciences Discovery Labware (Woburn, MA, USA); host or cells: baculovirus-insect cells
[1]
  Km: 0.43 (0.24–0.61) μM
  kcat: 9.3 (8.2–10.4) mol/(min·mol CYP)
[2]
  Km: 1.1 (0.5–1.7) μM
  kcat: 1.1 (0.96–1.2) mol/(min·mol CYP)
[3]
  Km: 0.096 (0.072–0.119) μM
  kcat: 3.3 (3.0–3.6) mol/(min·mol CYP)
[4]
  Km: 0.53 (0–1.1) μM
  kcat: 0.29 (0.25–0.34) mol/(min·mol CYP)
[5]
  Km: 2.59 (1.65–3.53) μM
  kcat: 0.37 (0.28–0.46) mol/(min·mol CYP)
[6]
  Km: 120 (0–282) μM
  kcat: 1.75 (0–3.54) mol/(min·mol CYP)
[7]
  Km: 0.095 (0.04–0.15) μM
  kcat: 5.1 (4.7–5.5) mol/(min·mol CYP)
